Results on 20 molecules are retold here after US20210388087A1 (Chugai, published 2021).

First the molecules themselves.
B1: H183/L072 VH K52bP (antibody, name in Kabat numbering, V domains shown)
VH: QVQLVESGGGLVQPGRSLRLSCAASGFTFSNAWMHWVRQAPGKGLEWVAQIKDPGNAYAAYYAPSVKGRFTISRDDSKNSIYLQMNSLKTEDTAVYYCHYVHYASASTVLPAFGVDAWGQGTTVTVSS
VL: DIVMTQSPLSLPVTPGEPASISCQASQELVHMNRNTYLHWYQQKPGQAPRLLIYKVSNRFPGVPDRFSGSGSGTDFTLKISRVEAEDVGVYYCAQGTSVPFTFGQGTKLEIK
B2: H183/L072 VH K52bW (antibody, name in Kabat numbering, V domains shown)
VH: QVQLVESGGGLVQPGRSLRLSCAASGFTFSNAWMHWVRQAPGKGLEWVAQIKDWGNAYAAYYAPSVKGRFTISRDDSKNSIYLQMNSLKTEDTAVYYCHYVHYASASTVLPAFGVDAWGQGTTVTVSS
VL: DIVMTQSPLSLPVTPGEPASISCQASQELVHMNRNTYLHWYQQKPGQAPRLLIYKVSNRFPGVPDRFSGSGSGTDFTLKISRVEAEDVGVYYCAQGTSVPFTFGQGTKLEIK
B3: H183/L072 VH K52bT (antibody, name in Kabat numbering, V domains shown)
VH: QVQLVESGGGLVQPGRSLRLSCAASGFTFSNAWMHWVRQAPGKGLEWVAQIKDTGNAYAAYYAPSVKGRFTISRDDSKNSIYLQMNSLKTEDTAVYYCHYVHYASASTVLPAFGVDAWGQGTTVTVSS
VL: DIVMTQSPLSLPVTPGEPASISCQASQELVHMNRNTYLHWYQQKPGQAPRLLIYKVSNRFPGVPDRFSGSGSGTDFTLKISRVEAEDVGVYYCAQGTSVPFTFGQGTKLEIK
B4: H183/L072 VH K64P (antibody, name in Kabat numbering, V domains shown)
VH: QVQLVESGGGLVQPGRSLRLSCAASGFTFSNAWMHWVRQAPGKGLEWVAQIKDKGNAYAAYYAPSVPGRFTISRDDSKNSIYLQMNSLKTEDTAVYYCHYVHYASASTVLPAFGVDAWGQGTTVTVSS
VL: DIVMTQSPLSLPVTPGEPASISCQASQELVHMNRNTYLHWYQQKPGQAPRLLIYKVSNRFPGVPDRFSGSGSGTDFTLKISRVEAEDVGVYYCAQGTSVPFTFGQGTKLEIK
B5: H183/L072 VH K64A (antibody, name in Kabat numbering, V domains shown)
VH: QVQLVESGGGLVQPGRSLRLSCAASGFTFSNAWMHWVRQAPGKGLEWVAQIKDKGNAYAAYYAPSVAGRFTISRDDSKNSIYLQMNSLKTEDTAVYYCHYVHYASASTVLPAFGVDAWGQGTTVTVSS
VL: DIVMTQSPLSLPVTPGEPASISCQASQELVHMNRNTYLHWYQQKPGQAPRLLIYKVSNRFPGVPDRFSGSGSGTDFTLKISRVEAEDVGVYYCAQGTSVPFTFGQGTKLEIK
B6: H183/L072 VH K64M (antibody, name in Kabat numbering, V domains shown)
VH: QVQLVESGGGLVQPGRSLRLSCAASGFTFSNAWMHWVRQAPGKGLEWVAQIKDKGNAYAAYYAPSVMGRFTISRDDSKNSIYLQMNSLKTEDTAVYYCHYVHYASASTVLPAFGVDAWGQGTTVTVSS
VL: DIVMTQSPLSLPVTPGEPASISCQASQELVHMNRNTYLHWYQQKPGQAPRLLIYKVSNRFPGVPDRFSGSGSGTDFTLKISRVEAEDVGVYYCAQGTSVPFTFGQGTKLEIK
B7: H183/L072 VH K52bY (antibody, name in Kabat numbering, V domains shown)
VH: QVQLVESGGGLVQPGRSLRLSCAASGFTFSNAWMHWVRQAPGKGLEWVAQIKDYGNAYAAYYAPSVKGRFTISRDDSKNSIYLQMNSLKTEDTAVYYCHYVHYASASTVLPAFGVDAWGQGTTVTVSS
VL: DIVMTQSPLSLPVTPGEPASISCQASQELVHMNRNTYLHWYQQKPGQAPRLLIYKVSNRFPGVPDRFSGSGSGTDFTLKISRVEAEDVGVYYCAQGTSVPFTFGQGTKLEIK
B8: H183/L072 VH M34I (antibody, name in Kabat numbering, V domains shown)
VH: QVQLVESGGGLVQPGRSLRLSCAASGFTFSNAWIHWVRQAPGKGLEWVAQIKDKGNAYAAYYAPSVKGRFTISRDDSKNSIYLQMNSLKTEDTAVYYCHYVHYASASTVLPAFGVDAWGQGTTVTVSS
VL: DIVMTQSPLSLPVTPGEPASISCQASQELVHMNRNTYLHWYQQKPGQAPRLLIYKVSNRFPGVPDRFSGSGSGTDFTLKISRVEAEDVGVYYCAQGTSVPFTFGQGTKLEIK
B9: H183/L072 VH K64L (antibody, name in Kabat numbering, V domains shown)
VH: QVQLVESGGGLVQPGRSLRLSCAASGFTFSNAWMHWVRQAPGKGLEWVAQIKDKGNAYAAYYAPSVLGRFTISRDDSKNSIYLQMNSLKTEDTAVYYCHYVHYASASTVLPAFGVDAWGQGTTVTVSS
VL: DIVMTQSPLSLPVTPGEPASISCQASQELVHMNRNTYLHWYQQKPGQAPRLLIYKVSNRFPGVPDRFSGSGSGTDFTLKISRVEAEDVGVYYCAQGTSVPFTFGQGTKLEIK
B10: H183/L072 VH K52bS (antibody, name in Kabat numbering, V domains shown)
VH: QVQLVESGGGLVQPGRSLRLSCAASGFTFSNAWMHWVRQAPGKGLEWVAQIKDSGNAYAAYYAPSVKGRFTISRDDSKNSIYLQMNSLKTEDTAVYYCHYVHYASASTVLPAFGVDAWGQGTTVTVSS
VL: DIVMTQSPLSLPVTPGEPASISCQASQELVHMNRNTYLHWYQQKPGQAPRLLIYKVSNRFPGVPDRFSGSGSGTDFTLKISRVEAEDVGVYYCAQGTSVPFTFGQGTKLEIK
B11: H183/L072 VH L100dM (antibody, name in Kabat numbering, V domains shown)
VH: QVQLVESGGGLVQPGRSLRLSCAASGFTFSNAWMHWVRQAPGKGLEWVAQIKDKGNAYAAYYAPSVKGRFTISRDDSKNSIYLQMNSLKTEDTAVYYCHYVHYASASTVMPAFGVDAWGQGTTVTVSS
VL: DIVMTQSPLSLPVTPGEPASISCQASQELVHMNRNTYLHWYQQKPGQAPRLLIYKVSNRFPGVPDRFSGSGSGTDFTLKISRVEAEDVGVYYCAQGTSVPFTFGQGTKLEIK
B12: H183/L072 VH L100dA (antibody, name in Kabat numbering, V domains shown)
VH: QVQLVESGGGLVQPGRSLRLSCAASGFTFSNAWMHWVRQAPGKGLEWVAQIKDKGNAYAAYYAPSVKGRFTISRDDSKNSIYLQMNSLKTEDTAVYYCHYVHYASASTVAPAFGVDAWGQGTTVTVSS
VL: DIVMTQSPLSLPVTPGEPASISCQASQELVHMNRNTYLHWYQQKPGQAPRLLIYKVSNRFPGVPDRFSGSGSGTDFTLKISRVEAEDVGVYYCAQGTSVPFTFGQGTKLEIK
B13: H183/L072 VH M34H (antibody, name in Kabat numbering, V domains shown)
VH: QVQLVESGGGLVQPGRSLRLSCAASGFTFSNAWHHWVRQAPGKGLEWVAQIKDKGNAYAAYYAPSVKGRFTISRDDSKNSIYLQMNSLKTEDTAVYYCHYVHYASASTVLPAFGVDAWGQGTTVTVSS
VL: DIVMTQSPLSLPVTPGEPASISCQASQELVHMNRNTYLHWYQQKPGQAPRLLIYKVSNRFPGVPDRFSGSGSGTDFTLKISRVEAEDVGVYYCAQGTSVPFTFGQGTKLEIK
B14: H183/L072 VH K52bQ (antibody, name in Kabat numbering, V domains shown)
VH: QVQLVESGGGLVQPGRSLRLSCAASGFTFSNAWMHWVRQAPGKGLEWVAQIKDQGNAYAAYYAPSVKGRFTISRDDSKNSIYLQMNSLKTEDTAVYYCHYVHYASASTVLPAFGVDAWGQGTTVTVSS
VL: DIVMTQSPLSLPVTPGEPASISCQASQELVHMNRNTYLHWYQQKPGQAPRLLIYKVSNRFPGVPDRFSGSGSGTDFTLKISRVEAEDVGVYYCAQGTSVPFTFGQGTKLEIK
B15: H183/L072 VH K52bR (antibody, name in Kabat numbering, V domains shown)
VH: QVQLVESGGGLVQPGRSLRLSCAASGFTFSNAWMHWVRQAPGKGLEWVAQIKDRGNAYAAYYAPSVKGRFTISRDDSKNSIYLQMNSLKTEDTAVYYCHYVHYASASTVLPAFGVDAWGQGTTVTVSS
VL: DIVMTQSPLSLPVTPGEPASISCQASQELVHMNRNTYLHWYQQKPGQAPRLLIYKVSNRFPGVPDRFSGSGSGTDFTLKISRVEAEDVGVYYCAQGTSVPFTFGQGTKLEIK
B16: H183/L072 VH K64I (antibody, name in Kabat numbering, V domains shown)
VH: QVQLVESGGGLVQPGRSLRLSCAASGFTFSNAWMHWVRQAPGKGLEWVAQIKDKGNAYAAYYAPSVIGRFTISRDDSKNSIYLQMNSLKTEDTAVYYCHYVHYASASTVLPAFGVDAWGQGTTVTVSS
VL: DIVMTQSPLSLPVTPGEPASISCQASQELVHMNRNTYLHWYQQKPGQAPRLLIYKVSNRFPGVPDRFSGSGSGTDFTLKISRVEAEDVGVYYCAQGTSVPFTFGQGTKLEIK
B17: H183/L072 VH L100dI (antibody, name in Kabat numbering, V domains shown)
VH: QVQLVESGGGLVQPGRSLRLSCAASGFTFSNAWMHWVRQAPGKGLEWVAQIKDKGNAYAAYYAPSVKGRFTISRDDSKNSIYLQMNSLKTEDTAVYYCHYVHYASASTVIPAFGVDAWGQGTTVTVSS
VL: DIVMTQSPLSLPVTPGEPASISCQASQELVHMNRNTYLHWYQQKPGQAPRLLIYKVSNRFPGVPDRFSGSGSGTDFTLKISRVEAEDVGVYYCAQGTSVPFTFGQGTKLEIK
B18: H183/L072 VH M34F (antibody, name in Kabat numbering, V domains shown)
VH: QVQLVESGGGLVQPGRSLRLSCAASGFTFSNAWFHWVRQAPGKGLEWVAQIKDKGNAYAAYYAPSVKGRFTISRDDSKNSIYLQMNSLKTEDTAVYYCHYVHYASASTVLPAFGVDAWGQGTTVTVSS
VL: DIVMTQSPLSLPVTPGEPASISCQASQELVHMNRNTYLHWYQQKPGQAPRLLIYKVSNRFPGVPDRFSGSGSGTDFTLKISRVEAEDVGVYYCAQGTSVPFTFGQGTKLEIK
B19: H183/L072 VH M34L (antibody, name in Kabat numbering, V domains shown)
VH: QVQLVESGGGLVQPGRSLRLSCAASGFTFSNAWLHWVRQAPGKGLEWVAQIKDKGNAYAAYYAPSVKGRFTISRDDSKNSIYLQMNSLKTEDTAVYYCHYVHYASASTVLPAFGVDAWGQGTTVTVSS
VL: DIVMTQSPLSLPVTPGEPASISCQASQELVHMNRNTYLHWYQQKPGQAPRLLIYKVSNRFPGVPDRFSGSGSGTDFTLKISRVEAEDVGVYYCAQGTSVPFTFGQGTKLEIK
B20: H183/L072 VH K52bV (antibody, name in Kabat numbering, V domains shown)
VH: QVQLVESGGGLVQPGRSLRLSCAASGFTFSNAWMHWVRQAPGKGLEWVAQIKDVGNAYAAYYAPSVKGRFTISRDDSKNSIYLQMNSLKTEDTAVYYCHYVHYASASTVLPAFGVDAWGQGTTVTVSS
VL: DIVMTQSPLSLPVTPGEPASISCQASQELVHMNRNTYLHWYQQKPGQAPRLLIYKVSNRFPGVPDRFSGSGSGTDFTLKISRVEAEDVGVYYCAQGTSVPFTFGQGTKLEIK

The target of this assay is T1, Human CD137 ECD (human).
T1 construct: also called 4-1BB
T1 sequence (chain, as listed by the source limits assumed): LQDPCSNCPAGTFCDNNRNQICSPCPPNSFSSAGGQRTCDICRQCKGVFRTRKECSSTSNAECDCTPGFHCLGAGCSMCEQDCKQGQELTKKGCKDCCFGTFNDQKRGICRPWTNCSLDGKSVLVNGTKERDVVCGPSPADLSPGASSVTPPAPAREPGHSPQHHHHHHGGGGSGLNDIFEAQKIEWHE
The assay can be described thus: single mutant vs template dBBDu183H.
On to B1, for which the “fold change of affinity” value was 0.4 fold.

As for B2, the “fold change of affinity” value was 0.9 fold.

Take B3: the “fold change of affinity” value was determined as 0.1 fold.

B4: the “fold change of affinity” value is 0.7 fold.

Consider B5, for which the “fold change of affinity” value amounted to 1.2 fold.

On to B6, for which the “fold change of affinity” value stood at 1.1 fold.

B7: the “fold change of affinity” value was 1 fold.

As to B8, the “fold change of affinity” value was found to be 1.4 fold.

With B9, the “fold change of affinity” value stood at 1.1 fold.

For the molecule B10, the “fold change of affinity” value is 0.8 fold.

B11: the “fold change of affinity” value amounted to 0.9 fold.

For the molecule B12, the “fold change of affinity” value worked out at 0.8 fold.

On to B13, for which the “fold change of affinity” value was 0.1 fold.

Consider B14, for which the “fold change of affinity” value amounted to 0.8 fold.

With B15, the “fold change of affinity” value was found to be 1.2 fold.

For B16, the “fold change of affinity” value is 1.1 fold.

As for B17, the “fold change of affinity” value came out at 0 fold.

Take B18: the “fold change of affinity” value amounted to 2.5 fold.

In the case of B19, the “fold change of affinity” value came to 1.8 fold.

For B20, the “fold change of affinity” value worked out at 0.6 fold.
